The target of the experiment is human TLR5 (HEK-Blue hTLR5 reporter cells) (human) (UniProt O60602). Description: cell-based or functional assay.

Drawing on patent US20210138058A1, this text covers potency of TLR5 response against FlaADSM100110 (HEK-Blue hTLR5 SEAP reporter) (fold against FlaADSM100110) for one substance.

Sequence of UniProt O60602 (O60602 21-858): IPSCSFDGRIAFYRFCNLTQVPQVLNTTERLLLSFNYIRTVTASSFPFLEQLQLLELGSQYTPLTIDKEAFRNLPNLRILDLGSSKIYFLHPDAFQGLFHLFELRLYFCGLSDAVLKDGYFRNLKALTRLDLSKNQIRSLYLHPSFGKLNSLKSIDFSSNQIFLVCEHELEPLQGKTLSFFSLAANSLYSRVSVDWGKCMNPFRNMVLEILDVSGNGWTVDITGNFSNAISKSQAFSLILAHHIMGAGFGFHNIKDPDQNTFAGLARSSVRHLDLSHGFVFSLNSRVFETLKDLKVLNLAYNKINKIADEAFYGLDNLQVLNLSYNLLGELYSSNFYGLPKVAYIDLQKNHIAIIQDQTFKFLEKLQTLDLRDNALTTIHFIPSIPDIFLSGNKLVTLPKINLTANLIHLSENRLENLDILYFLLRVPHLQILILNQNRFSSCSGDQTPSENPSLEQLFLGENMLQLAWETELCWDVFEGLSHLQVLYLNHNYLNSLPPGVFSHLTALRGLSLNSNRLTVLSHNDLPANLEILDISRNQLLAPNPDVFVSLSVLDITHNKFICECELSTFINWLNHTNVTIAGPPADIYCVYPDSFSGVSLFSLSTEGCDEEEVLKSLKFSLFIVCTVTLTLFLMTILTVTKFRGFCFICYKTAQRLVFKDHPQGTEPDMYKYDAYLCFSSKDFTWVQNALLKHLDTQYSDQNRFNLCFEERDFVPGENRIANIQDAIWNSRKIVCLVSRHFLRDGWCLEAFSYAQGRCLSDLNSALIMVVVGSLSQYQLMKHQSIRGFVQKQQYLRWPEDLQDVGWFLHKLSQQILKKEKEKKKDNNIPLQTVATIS

On to “Recombinant purified flagellin protein FlaAMRx0518 (Enterococcus gallinarum MRx0518 flagellin, N-terminal 6xHis tag) (ligand)”, for which the potency of TLR5 response against FlaADSM100110 (HEK-Blue hTLR5 SEAP reporter) (fold against FlaADSM100110) was found to be 5.
